Binding signal (fraction of canonical control), activity and off-target activity reduction (fold reduction vs L+17) data for 16 sequences are collected here from US20150307561.

The test system of data set [1] is TALE tetramer library CTTC (repeats 1-4 varied) (synthetic (Xanthomonas TALE scaffold)). The experiment in a line: ELISA. To be noted: mean of 132 library clones, SE 0.07.
The subject of data set [2] is TALE tetramer library TCAT (repeats 1-4 varied) (synthetic (Xanthomonas TALE scaffold)). As to the kind of experiment: ELISA. To be noted: mean of 44 library clones, SE 0.22.
The subject of data set [3] is TALE tetramer library ATAC (repeats 5-8 varied) (synthetic (Xanthomonas TALE scaffold)). The experiment in a line: ELISA. To be noted: mean of 43 library clones, SE 0.06.
Data set [4] deals with TALE tetramer library ATTG (repeats 5-8 varied) (synthetic (Xanthomonas TALE scaffold)). The experiment in a line: ELISA. To be noted: mean of 131 library clones, SE 0.05.
Data set [5] deals with TALE tetramer library CAGA (repeats 5-8 varied) (synthetic (Xanthomonas TALE scaffold)). The experiment in a line: ELISA. Conditions: mean of 146 library clones, SE 0.02.
Data set [6] has as its system TALE tetramer library CAGC (repeats 5-8 varied) (synthetic (Xanthomonas TALE scaffold)). The experiment in a line: ELISA. To be noted: mean of 137 library clones, SE 0.02.
Data set [7] has as its system TALE tetramer library TACA (repeats 5-8 varied) (synthetic (Xanthomonas TALE scaffold)). The experiment in a line: ELISA. To be noted: mean of 85 library clones, SE 0.06.
Data set [8] has as its system TALEN R2+17 (synthetic (Xanthomonas TALE scaffold)). The experiment in a line: cell_activity. Conditions: K562, partner L+17 or L*+17, cold shock.
Data set [9] deals with TALEN L (L538), canonical RVDs (synthetic (Xanthomonas TALE scaffold)). As to the kind of experiment: cell_activity. Conditions: cold shock.
In data set [10] the test system is TALEN L*, non-canonical RVDs (synthetic (Xanthomonas TALE scaffold)). The experiment in a line: cell_activity.
The subject of data set [11] is TALEN L*+17 (synthetic (Xanthomonas TALE scaffold)). As to the kind of experiment: cell_activity. Conditions: for off-target activity reduction (fold reduction vs L+17): L*+17 homodimer at +17_OT1.
Data set [12] deals with TALEN L+17 (synthetic (Xanthomonas TALE scaffold)). As to the kind of experiment: cell_activity. Conditions: K562, partner R2+17, cold shock.
The test system of data set [13] is TALEN R*, non-canonical RVDs (synthetic (Xanthomonas TALE scaffold)). The experiment in a line: cell_activity. To be noted: cold shock.
Data set [14] deals with TALEN R (R557), canonical RVDs (synthetic (Xanthomonas TALE scaffold)). As to the kind of experiment: cell_activity. Conditions: cold shock.
Data set [15] relates to TALEN R 102102 (synthetic (Xanthomonas TALE scaffold)). As to the kind of experiment: cell_activity. To be noted: K562, partner TALEN L.
Data set [16] has as its system TALEN R 102151 (synthetic (Xanthomonas TALE scaffold)). As to the kind of experiment: cell_activity. Conditions: K562, partner TALEN L.
Data set [17] deals with TALEN R 102156 (synthetic (Xanthomonas TALE scaffold)). The experiment in a line: cell_activity. To be noted: K562, partner TALEN L.
For data set [18], the system named is TALEN R 102123 (synthetic (Xanthomonas TALE scaffold)). The experiment in a line: cell_activity. To be noted: K562, partner TALEN L.
Data set [19] relates to TALEN R 102129 (synthetic (Xanthomonas TALE scaffold)). The experiment in a line: cell_activity. Conditions: K562, partner TALEN L.
Data set [20] relates to TALEN R 102124 (synthetic (Xanthomonas TALE scaffold)). The experiment in a line: cell_activity. To be noted: K562, partner TALEN L.
The test system of data set [21] is TALEN R 102148 (synthetic (Xanthomonas TALE scaffold)). The experiment in a line: cell_activity. To be noted: K562, partner TALEN L.
Data set [22] concerns TALEN R 102146 (synthetic (Xanthomonas TALE scaffold)). As to the kind of experiment: cell_activity. To be noted: K562, partner TALEN L.
The subject of data set [23] is TALEN R 102161 (synthetic (Xanthomonas TALE scaffold)). The experiment in a line: cell_activity. Conditions: K562, partner TALEN L.
Data set [24] concerns TALEN R 102177 (synthetic (Xanthomonas TALE scaffold)). As to the kind of experiment: cell_activity. Conditions: K562, partner TALEN L.
Data set [25] concerns TALEN R 102128 (synthetic (Xanthomonas TALE scaffold)). As to the kind of experiment: cell_activity. To be noted: K562, partner TALEN L.
The test system of data set [26] is TALEN R 102109 G34R in repeat 8 (synthetic (Xanthomonas TALE scaffold)). As to the kind of experiment: cell_activity. Conditions: K562, partner TALEN L.
In data set [27] the test system is TALEN R 102150 (synthetic (Xanthomonas TALE scaffold)). As to the kind of experiment: cell_activity. To be noted: K562, partner TALEN L.
Data set [28] relates to TALEN R 102112 (synthetic (Xanthomonas TALE scaffold)). The experiment in a line: cell_activity. To be noted: K562, partner TALEN L.
For data set [29], the system named is TALEN R 102162 (synthetic (Xanthomonas TALE scaffold)). As to the kind of experiment: cell_activity. Conditions: K562, partner TALEN L.
Data set [30] deals with TALEN R 102115 (synthetic (Xanthomonas TALE scaffold)). The experiment in a line: cell_activity. Conditions: K562, partner TALEN L.
The test system of data set [31] is TALEN R 102105 (synthetic (Xanthomonas TALE scaffold)). As to the kind of experiment: cell_activity. Conditions: K562, partner TALEN L.
Data set [32] deals with TALEN R 102159 (synthetic (Xanthomonas TALE scaffold)). As to the kind of experiment: cell_activity. Conditions: K562, partner TALEN L.
Data set [33] has as its system TALEN R 102158 (synthetic (Xanthomonas TALE scaffold)). The experiment in a line: cell_activity. To be noted: K562, partner TALEN L.
Where [34] appears, read: OT2, L*/L* homodimer, about 180-fold below L.

The sequence “CATAGTCCCCTCTTCATCCTCCTCGGTGTAGTTTTCACAGTCAGTCCACACGTC (double strand) [CTTC target]” had a binding signal (fraction of canonical control) in data set [1] of 0.55.
“CATAGTCCCCTTCATATCCTCCTCGGTGTAGTTTTCACAGTCAGTCCACACGTC (double strand) [TCAT target]” gave a binding signal (fraction of canonical control) in [2] of 1.03.
In turn, “CATAGTCCCCTTGACATACTCCTCGGTGTAGTTTTCACAGTCAGTCCACACGTC (double strand) [ATAC target]” registered a binding signal (fraction of canonical control) in data set [3] of 0.56.
“CATAGTCCCCTTGACATTGTCCTCGGTGTAGTTTTCACAGTCAGTCCACACGTC (double strand) [ATTG target]”: the binding signal (fraction of canonical control) in data set [4] was 0.37.
As to “CATAGTCCCCTTGACCAGATCCTCGGTGTAGTTTTCACAGTCAGTCCACACGTC (double strand) [CAGA target]”, the binding signal (fraction of canonical control) in [5] is 0.18.
Take “CATAGTCCCCTTGACCAGCTCCTCGGTGTAGTTTTCACAGTCAGTCCACACGTC (double strand) [CAGC target]”: in data set [6], the binding signal (fraction of canonical control) stood at 0.03.
Sequence “CATAGTCCCCTTGACTACATCCTCGGTGTAGTTTTCACAGTCAGTCCACACGTC (double strand) [TACA target]” displayed a binding signal (fraction of canonical control) in data set [7] of 0.5.
Sequence “CCATACAGTCAGTATCAAT (double strand) [CCR5 +17 target, right half]” registered an activity in data set [8] above 85 % indels.
“CCCGATGAAGCCCCAGGTGTTTTAAAT (double strand) [OT2 right half]”: the activity in [9] (OT2, L/L homodimer) was 3.18 % indels; in [10] (setting [34]), 0.017 % indels.
“CTTCATTACACCTGCAGCTCTCA (double strand) [CCR5 +17 target, left half]”: the activity in data set [11] (K562, partner R2+17, cold shock) is above 85 % indels; in data set [12], above 85 % indels.
On to “CTTGATTCCACCTGTAGCTCCGAGCAAA (double strand) [OT2 left half]”, for which the activity is 3.18 % indels in [9] (OT2, L/L homodimer) and 0.017 % indels in data set [10] (setting [34]).
Take “GTTACCAGATATCCTTTCTGGAAGAAA (double strand) [OT1 right half]”: the activity in data set [13] (OT1, L*/R*, 0.663 for L/R*) was found to be 0.32 % indels; in data set [14] (OT1, L/R), 3.17 % indels.
Regarding “TCTTCCAGAATTGATACT (double strand) [TALEN R binding site (CCR5)]”, the activity in [15] stood at 27.8 % indels; in data set [16], 23.6 % indels; in [17] it was 25.4 % indels; in data set [18] it was 32.8 % indels; in data set [19], 4.7 % indels; in data set [20], 29.1 % indels. Also, the activity in data set [21] is 33.7 % indels; in [22], 31.4 % indels; in data set [23], 9.3 % indels; in data set [24], 22.9 % indels; in data set [25], 7.6 % indels; in data set [26] it was 29.7 % indels. In addition, the activity amounted to 65.2 % indels in data set [13] (K562, L*/R*, 55.53 with L); 31.2 % indels in data set [27]; 6.1 % indels in [28]; 50.6 % indels in data set [14] (K562, L/R); 23.1 % indels in data set [29]; 27.7 % indels in data set [30]. Also, the activity worked out at 24.9 % indels in data set [31], 24.9 % indels in data set [32] and 23.4 % indels in [33].
The sequence “TTTACCCTGCAGGTGTGATGAAT (double strand) [+17_OT1 right half]” yielded an off-target activity reduction (fold reduction vs L+17) in data set [11] above 100.
Still for that read-out and setting: as for “TTTAGATACACCTACCTATAAAT (double strand) [+17_OT1 left half]”, the figure is above 100.
As for “TTTTATTACACTTCCAGATCTTTTATT (double strand) [OT1 left half]”, the activity was 3.17 % indels in [9] (OT1, L/R) and 0.32 % indels in data set [10] (OT1, L*/R*, cold shock, 1.967 for L*/R).
